Measured values reported in patent publication US20140348865A1, “[…] ON AN HIV-1 V1V2 SITE-OF-VULNERABILITY” (The United States of America, as represented by the …, priority 2011, published 2014).

What was measured:
[1] = biological target: Env of HIV-1 strain 7165.18 (pseudovirus) (HIV-1)
[2] = biological target: Env of HIV-1 strain BG 1168 (pseudovirus) (HIV-1)
[3] = biological target: Env of HIV-1 strain CNE4 (pseudovirus) (HIV-1)
[4] = biological target: Env of HIV-1 strain JRFL (pseudovirus) (HIV-1)
[5] = biological target: Env of HIV-1 strain RHPA (pseudovirus) (HIV-1)
[6] = biological target: Env of HIV-1 strain T251-18 (pseudovirus) (HIV-1)
[7] = biological target: Env of HIV-1 strain 6322 (pseudovirus) (HIV-1)
[8] = biological target: Env of HIV-1 strain 6471 (pseudovirus) (HIV-1)
[9] = biological target: Env of HIV-1 strain CNE30 (pseudovirus) (HIV-1)
[10] = biological target: 1FD6 ZM109 scaffold N130D; assay: ELISA
[11] = biological target: 1FD6 ZM109 scaffold N138D; assay: ELISA
[12] = biological target: 1FD6 ZM109 scaffold N160Q; assay: ELISA
[13] = biological target: 1FD6 ZM109 scaffold N173D; assay: ELISA
[14] = biological target: 1FD6 ZM109 scaffold N189D; assay: ELISA
[15] = biological target: 1FD6 ZM109 scaffold N192D; assay: ELISA
1FD6-ZM109 V1V2 scaffold = assay: ELISA
[16] = biological target: 1FD6 CAP45 scaffold N143D/N147D/N192D; assay: ELISA on His-captured supernatant

monoclonal antibody PG9 was tested. Which neutralization IC80 (89.6.DG (HIV-1)) did it give?
Its neutralization IC80 is greater than 50 µg/mL.

And the neutralization IC80 (AC10.29 (HIV-1))?
The neutralization IC80 was 0.306 µg/mL.

And the neutralization IC80 (ADA.DG (HIV-1))?
The neutralization IC80 was greater than 50 µg/mL.

And the neutralization IC80 (BL01.DG (HIV-1))?
Its neutralization IC80 is greater than 50 µg/mL.

And the neutralization IC80 (BR07.DG (HIV-1))?
The neutralization IC80 was greater than 50 µg/mL.

What about the neutralization IC80 (BX08_16 (HIV-1)) of the same substance?
The neutralization IC80 was 0.273 µg/mL.

And the neutralization IC80 (BaL.26 (HIV-1))?
Its neutralization IC80 is 0.365 µg/mL.

What about the neutralization IC80 (CAAN.A2 (HIV-1)) of the same substance?
Its neutralization IC80 is greater than 50 µg/mL.

And the neutralization IC80 (CH038.12 (HIV-1))?
Its neutralization IC80 is greater than 50 µg/mL.

What about the neutralization IC80 (CH070.1 (HIV-1)) of the same substance?
The neutralization IC80 was 0.024 µg/mL.

And the neutralization IC80 (CNE12 (HIV-1))?
The neutralization IC80 was greater than 50 µg/mL.

And the neutralization IC80 (CNE14 (HIV-1))?
The neutralization IC80 was greater than 50 µg/mL.

What about the neutralization IC80 (CNE57 (HIV-1)) of the same substance?
The neutralization IC80 was greater than 50 µg/mL.

And the neutralization IC80 (DJ263.8 (HIV-1))?
The neutralization IC80 was 0.733 µg/mL.

And the neutralization IC80 [1]?
The neutralization IC80 was greater than 50 µg/mL.

And the neutralization IC80 [2]?
Its neutralization IC80 is greater than 50 µg/mL.

What about the neutralization IC80 [3] of the same substance?
The neutralization IC80 was greater than 50 µg/mL.

And the neutralization IC80 [4]?
Its neutralization IC80 is greater than 50 µg/mL.

And the neutralization IC80 [5]?
The neutralization IC80 was greater than 50 µg/mL.

What about the neutralization IC80 [6] of the same substance?
The neutralization IC80 was greater than 50 µg/mL.

And the neutralization IC80 (HO86.8 (HIV-1))?
Its neutralization IC80 is 0.125 µg/mL.

And the neutralization IC80 (HT593.1 (HIV-1))?
Its neutralization IC80 is 5.41 µg/mL.

What about the neutralization IC80 (HXB2.DG (HIV-1)) of the same substance?
Its neutralization IC80 is 10.2 µg/mL.

What about the neutralization IC80 (JRCSF.JB (HIV-1)) of the same substance?
Its neutralization IC80 is 0.009 µg/mL.

What about the neutralization IC80 (MN.3 (HIV-1)) of the same substance?
Its neutralization IC80 is greater than 50 µg/mL.

What about the neutralization IC80 (PVO.04 (HIV-1)) of the same substance?
The neutralization IC80 was 37.1 µg/mL.

And the neutralization IC80 (QH0692.42 (HIV-1))?
Its neutralization IC80 is greater than 50 µg/mL.

What about the neutralization IC80 (REJO.67 (HIV-1)) of the same substance?
The neutralization IC80 was 0.08 µg/mL.

What about the neutralization IC80 (SC422.8 (HIV-1)) of the same substance?
Its neutralization IC80 is 38.6 µg/mL.

What about the neutralization IC80 (SF162.LS (HIV-1)) of the same substance?
The neutralization IC80 was greater than 50 µg/mL.

What about the neutralization IC80 (SS1196.01 (HIV-1)) of the same substance?
Its neutralization IC80 is 3.08 µg/mL.

And the neutralization IC80 (T250-4 (HIV-1))?
Its neutralization IC80 is 1 ng/mL.

And the neutralization IC80 (T253-11 (HIV-1))?
Its neutralization IC80 is 1.72 µg/mL.

What about the neutralization IC80 (T255-34 (HIV-1)) of the same substance?
Its neutralization IC80 is 0.114 µg/mL.

What about the neutralization IC80 (T257-31 (HIV-1)) of the same substance?
The neutralization IC80 was 0.075 µg/mL.

And the neutralization IC80 (T266-60 (HIV-1))?
The neutralization IC80 was greater than 50 µg/mL.

And the neutralization IC80 (T278-50 (HIV-1))?
The neutralization IC80 was 6.06 µg/mL.

And the neutralization IC80 (T280-5 (HIV-1))?
Its neutralization IC80 is 1.94 µg/mL.

And the neutralization IC80 (T33-7 (HIV-1))?
The neutralization IC80 was 0.087 µg/mL.

And the neutralization IC80 (THRO.18 (HIV-1))?
Its neutralization IC80 is greater than 50 µg/mL.

And the neutralization IC80 (TRJO.58 (HIV-1))?
The neutralization IC80 was 3.22 µg/mL.

What about the neutralization IC80 (TRO.11 (HIV-1)) of the same substance?
The neutralization IC80 was greater than 50 µg/mL.

And the neutralization IC80 (YU2.DG (HIV-1))?
Its neutralization IC80 is greater than 50 µg/mL.

And the neutralization IC80 (6644.V2.C33 (HIV-1))?
Its neutralization IC80 is 0.12 µg/mL.

What about the neutralization IC80 (CAP244.D3 (HIV-1)) of the same substance?
Its neutralization IC80 is 0.362 µg/mL.

What about the neutralization IC80 (CNE31 (HIV-1)) of the same substance?
Its neutralization IC80 is greater than 50 µg/mL.

What about the neutralization IC80 (CNE53 (HIV-1)) of the same substance?
Its neutralization IC80 is 0.809 µg/mL.

What about the neutralization IC80 (DU123.06 (HIV-1)) of the same substance?
Its neutralization IC80 is 0.477 µg/mL.

What about the neutralization IC80 (DU172.17 (HIV-1)) of the same substance?
Its neutralization IC80 is 0.899 µg/mL.

And the neutralization IC80 [7]?
Its neutralization IC80 is greater than 50 µg/mL.

And the neutralization IC80 [8]?
Its neutralization IC80 is greater than 50 µg/mL.

And the neutralization IC80 [9]?
The neutralization IC80 was greater than 50 µg/mL.

What about the neutralization IC80 (MW965.26 (HIV-1)) of the same substance?
The neutralization IC80 was 49.9 µg/mL.

What about the neutralization IC80 (ZA012.29 (HIV-1)) of the same substance?
The neutralization IC80 was greater than 50 µg/mL.

And the EC50 [10]?
Its EC50 is 0.4 µg/mL.

And the EC50 [11]?
The EC50 was 0.2 µg/mL.

And the EC50 [12]?
The EC50 was greater than 50 µg/mL.

What about the EC50 [13] of the same substance?
Its EC50 is 7 µg/mL.

What about the EC50 [14] of the same substance?
The EC50 was 0.1 µg/mL.

And the EC50 [15]?
The EC50 was 0.1 µg/mL.

And the EC50 (1FD6-ZM109 V1V2 scaffold)?
The EC50 was 0.1 µg/mL.

What about the EC50 [16] of the same substance?
Its EC50 is 0.1 µg/mL.

What does the source list for monoclonal antibody PG16?
neutralization IC80 (89.6.DG (HIV-1)): > 50 µg/mL; neutralization IC80 (AC10.29 (HIV-1)): 0.088 µg/mL; neutralization IC80 (ADA.DG (HIV-1)): 0.458 µg/mL; neutralization IC80 (BL01.DG (HIV-1)): > 50 µg/mL; neutralization IC80 (BR07.DG (HIV-1)): > 50 µg/mL; neutralization IC80 (BX08_16 (HIV-1)): 38.8 µg/mL; neutralization IC80 (BaL.26 (HIV-1)): > 50 µg/mL; neutralization IC80 (CAAN.A2 (HIV-1)): > 50 µg/mL; neutralization IC80 (CH038.12 (HIV-1)): > 50 µg/mL; neutralization IC80 (CH070.1 (HIV-1)): 0.013 µg/mL; neutralization IC80 (CNE12 (HIV-1)): > 50 µg/mL; neutralization IC80 (CNE14 (HIV-1)): > 50 µg/mL; neutralization IC80 (CNE57 (HIV-1)): > 50 µg/mL; neutralization IC80 (DJ263.8 (HIV-1)): 1.11 µg/mL; neutralization IC80 [1]: > 50 µg/mL; neutralization IC80 [2]: > 50 µg/mL; neutralization IC80 [3]: > 50 µg/mL; neutralization IC80 [4]: > 50 µg/mL; neutralization IC80 [5]: > 50 µg/mL; neutralization IC80 [6]: > 50 µg/mL; neutralization IC80 (HO86.8 (HIV-1)): 0.02 µg/mL; neutralization IC80 (HT593.1 (HIV-1)): 13.7 µg/mL; neutralization IC80 (HXB2.DG (HIV-1)): > 50 µg/mL; neutralization IC80 (JRCSF.JB (HIV-1)): 0.015 µg/mL; neutralization IC80 (MN.3 (HIV-1)): > 50 µg/mL; neutralization IC80 (PVO.04 (HIV-1)): > 50 µg/mL; neutralization IC80 (QH0692.42 (HIV-1)): > 50 µg/mL; neutralization IC80 (REJO.67 (HIV-1)): 0.4 µg/mL; neutralization IC80 (SC422.8 (HIV-1)): > 50 µg/mL; neutralization IC80 (SF162.LS (HIV-1)): > 50 µg/mL; neutralization IC80 (SS1196.01 (HIV-1)): 2.9 µg/mL; neutralization IC80 (T250-4 (HIV-1)): 1 ng/mL; neutralization IC80 (T253-11 (HIV-1)): > 50 µg/mL; neutralization IC80 (T255-34 (HIV-1)): 0.079 µg/mL; neutralization IC80 (T257-31 (HIV-1)): 0.021 µg/mL; neutralization IC80 (T266-60 (HIV-1)): > 50 µg/mL; neutralization IC80 (T278-50 (HIV-1)): > 50 µg/mL; neutralization IC80 (T280-5 (HIV-1)): 4.53 µg/mL; neutralization IC80 (T33-7 (HIV-1)): 0.279 µg/mL; neutralization IC80 (THRO.18 (HIV-1)): > 50 µg/mL; neutralization IC80 (TRJO.58 (HIV-1)): 13.9 µg/mL; neutralization IC80 (TRO.11 (HIV-1)): > 50 µg/mL; neutralization IC80 (YU2.DG (HIV-1)): > 50 µg/mL; neutralization IC80 (6644.V2.C33 (HIV-1)): > 50 µg/mL; neutralization IC80 (CAP244.D3 (HIV-1)): 0.058 µg/mL; neutralization IC80 (CNE31 (HIV-1)): > 50 µg/mL; neutralization IC80 (CNE53 (HIV-1)): > 50 µg/mL; neutralization IC80 (DU123.06 (HIV-1)): 0.163 µg/mL; neutralization IC80 (DU172.17 (HIV-1)): 0.134 µg/mL; neutralization IC80 [7]: > 50 µg/mL; neutralization IC80 [8]: > 50 µg/mL; neutralization IC80 [9]: > 50 µg/mL; neutralization IC80 (MW965.26 (HIV-1)): > 50 µg/mL; neutralization IC80 (ZA012.29 (HIV-1)): > 50 µg/mL; EC50 [10]: 1.5 µg/mL; EC50 [11]: 4.4 µg/mL; EC50 [12]: > 50 µg/mL; EC50 [13]: > 50 µg/mL; EC50 [14]: 4 µg/mL; EC50 [15]: 2.5 µg/mL; EC50 (1FD6-ZM109 V1V2 scaffold): 3.4 µg/mL; EC50 [16]: 15.1 µg/mL
